From paper PMC7837216, “ISRIB Blunts the Integrated Stress Response by Allosterically Antagonising the Inhibitory Effect of Phosphorylated eIF2 on eIF2B” (Molecular Cell, 2021)

How the values were obtained:
[1] = target: human eIF2B decamer, wild type (human) (UniProt Q14232); assay: fluorescence polarisation; FAM-ISRIB (2.5-5 nM) bound to eIF2B, displaced by rising eIF2(αP) (0-2.5 μM) or P-eIF2α-NTD (0-40 μM); equilibrium, 30 min at room temperature; 20 mM HEPES-KOH pH 7.4, 150 mM KCl, 2 mM MgCl2, 1 mM TCEP, 0.05 mg/mL BSA, 0.01% Triton X-100; four-parameter log[inhibitor] fit
[2] = target: biotinylated, phosphorylated N-terminal domain of human eIF2α (human) (UniProt P05198); assay: BLI; biotinylated P-eIF2α-NTD on streptavidin sensors, eIF2B in solution, without ISRIB (DMSO); 30°C; 20 mM HEPES pH 7.4, 150 mM KCl, 2 mM MgCl2, 1 mM TCEP, 0.05 mg/mL BSA, 0.01% Triton X-100; plateau values of 2-phase association fits against eIF2B concentration (9-150 nM)
[3] = target: biotinylated, phosphorylated N-terminal domain of human eIF2α (human) (UniProt P05198); assay: BLI; as a3 but with ISRIB (1 μM) in the association and dissociation buffer

| IC50 [1] | K1/2max [2] | K1/2max [3] | Substance |
| --- | --- | --- | --- |
| 3000 nM |  |  | biotinylated, phosphorylated N-terminal domain of human eIF2α (from UniProt P05198 1-187) (domain or fragment) |
|  | 15.2 nM | 29.8 nM | human eIF2B decamer, wild type (from UniProt Q14232 1-305; P49770 1-351; Q9NR50 1-452; Q9UI10 1-523; Q13144 1-721) (complex) |
| 250 nM |  |  | phosphorylated human eIF2 trimer, eIF2(αP) (from UniProt P05198 1-315; P20042 1-333; P41091 1-472) (complex) |
